± gives the uncertainty stated by the source.
Test: self-splicing fitness, log relative to wild type (ln ratio); higher = more splicing; Tetrahymena group I intron in knt gene, E. coli kanamycin selection, DiMSum; sequences stand for … in CUCUCU…GGAGGGAAAAGUUAUCAGGCAUGCACCUGGUAGCUAGUCUUUAAACCAAUAGAUUGCAUCGGUUUAAAAGGCAAGACCGUCAAAUUGCGGGAAAGGGGUCAACAGCCGUUCAGUACCAAGUCUCAGGGGAAACUUUGAGAUGGCCUUGCAAAGGGUAUGGUAAUAAGCUGACGGACAUGGUCCUAACCACGCAGCCAAGUCCUAAGUCAACAGAUCUUCUGUUGAUAUGGAUGCAGUUCACAGACUAAAUGUCGGUCGGGGAAGAUGUAUUCUUCUCAUAAGAUAUAGUCGGACCUCUCCUUAAUGGGAGCUAGCGGAUGAAGUGAUGCAACACUGGAGCCGCUGGGAACUAAUUUGUAUGCGAAAGUAUAUUGAUUAGUUUUGGAGUACUCGUGGUCG
Method in brief: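 Fitness was computed with DiMSum as the error-weighted combination of replicate fold changes, kanamycin versus none, each normalised to wild type. The library randomised all eight intron nucleotides of the P1ex region, with the intron placed in the knt kanamycin-resistance gene on pET-22b(+) in E. coli BL21(DE3). Six replicate transformations were grown overnight at 37°C or 30°C on LB agar with or without 25 μg/mL kanamycin, plus 100 μg/mL carbenicillin, 50 μM IPTG and 0.2% rhamnose. Pooled colonies were amplicon-sequenced on an Illumina HiSeq 2500.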

| Sequence | self-splicing fitness (ln) (30 °C) | self-splicing fitness (ln) (37 °C) |
| --- | --- | --- |
| UCGCAGCAAUAUUACGAUUC | -3.5 ± 0.48 |  |
| UCGCAGCAAUAUUACGCAUA | -1.94 ± 0.13 | -0.0771 ± 0.11 |
| UCGCAGCAAUAUUACGCGCC | -3.12 ± 0.17 | -1.59 ± 0.13 |
| UCGCAGCAAUAUUACGCGGC |  | -1.94 ± 0.26 |
| UCGCAGCAAUAUUACGCGGG | -3.93 ± 0.3 | -3.33 ± 0.33 |
| UCGCAGCAAUAUUACGCGUA | -1.83 ± 0.12 | -0.123 ± 0.11 |
| UCGCAGCAAUAUUACGCUCA | -1.37 ± 0.085 | -0.529 ± 0.091 |
| UCGCAGCAAUAUUACGGAAU | -2.75 ± 0.27 | -2.5 ± 0.26 |
| UCGCAGCAAUAUUACGGGCA | -1.41 ± 0.4 | -0.479 ± 0.23 |
| UCGCAGCAAUAUUACGGGGG | -2.52 ± 0.15 | -1.86 ± 0.17 |
| UCGCAGCAAUAUUACGGGUC |  | -2.14 ± 0.23 |
| UCGCAGCAAUAUUACGGUCC |  | -1.82 ± 0.24 |
| UCGCAGCAAUAUUACGGUGG | -3.36 ± 0.18 | -2.85 ± 0.21 |
| UCGCAGCAAUAUUACGUCCC | -4.28 ± 0.32 | -2.97 ± 0.3 |
| UCGCAGCAAUAUUACGUGGG | -4.4 ± 0.36 | -2.53 ± 0.14 |
| UCGCAGCAAUAUUACGUGUC | -3.83 ± 0.2 | -2.28 ± 0.17 |
| UCGGAGCAAUAUUACGACUU | -3.46 ± 0.22 | -2.48 ± 0.19 |
| UCGGAGCAAUAUUACGAGUC |  | -0.017 ± 0.39 |
| UCGGAGCAAUAUUACGCACA | -2.26 ± 0.46 | -2.22 ± 0.43 |
| UCGGAGCAAUAUUACGCAGA |  | -2.13 ± 0.23 |
| UCGGAGCAAUAUUACGCGAU | -3.51 ± 0.19 | -2.42 ± 0.23 |

| Sequence | self-splicing fitness (ln) (30 °C) | self-splicing fitness (ln) (37 °C) |
| --- | --- | --- |
| UCGGAGCAAUAUUACGCGGG | -4.21 ± 0.31 | -2.77 ± 0.27 |
| UCGGAGCAAUAUUACGGCAU | -2.73 ± 0.21 | -1.97 ± 0.37 |
| UCGGAGCAAUAUUACGGCCC |  | -2.31 ± 0.45 |
| UCGGAGCAAUAUUACGGCGA | -1.1 ± 0.18 | -0.689 ± 0.23 |
| UCGGAGCAAUAUUACGGGCC | -4.15 ± 0.39 | -3.6 ± 0.33 |
| UCGGAGCAAUAUUACGGGGG | -2.73 ± 0.22 | -2.32 ± 0.3 |
| UCGGAGCAAUAUUACGGGUA |  | -1.76 ± 0.45 |
| UCGGAGCAAUAUUACGGUCC | -2.33 ± 0.4 | -1.73 ± 0.49 |
| UCGGAGCAAUAUUACGUAAC | -3.51 ± 0.48 |  |
| UCGGAGCAAUAUUACGUAUU | -4.15 ± 0.18 | -2.34 ± 0.15 |
| UCGGAGCAAUAUUACGUUAU | -3.36 ± 0.38 | -2.11 ± 0.38 |
| UCGUAGCAAUAUUACGACCU | -2.89 ± 0.22 | -0.916 ± 0.15 |
| UCGUAGCAAUAUUACGAUGU | -3.41 ± 0.24 | -2.24 ± 0.2 |
| UCGUAGCAAUAUUACGCACU | -2.67 ± 0.11 | -2.16 ± 0.11 |
| UCGUAGCAAUAUUACGCCGG | -0.692 ± 0.13 | -2.41 ± 0.28 |
| UCGUAGCAAUAUUACGCGAA | -2.68 ± 0.23 | -0.932 ± 0.19 |
| UCGUAGCAAUAUUACGCGGU | -2.32 ± 0.15 | -1.6 ± 0.18 |
| UCGUAGCAAUAUUACGCGUA | -1.16 ± 0.14 | -0.895 ± 0.11 |
| UCGUAGCAAUAUUACGCGUC |  | -2.59 ± 0.33 |
| UCGUAGCAAUAUUACGCUAA |  | -1.48 ± 0.29 |
| UCGUAGCAAUAUUACGCUGG | -3.09 ± 0.15 | -1.88 ± 0.15 |

— the supplement of paper PMC7877785
